# Assay results as given in US20200199533A1 (KING ABDULLAH UNIVERSITY OF SCIENCE AND TECHNOLOGY, published 2020).
# T1: CD34, native glycoprotein from human HSPCs (KG1a, CD34^pos-BM, CD34^pos-UCB, CD34^pos-AML) (human, UniProt P28906 32-385, native glycosylation (about 120-130 kDa form); sialylated O-glycans and tyrosine sulfation are shown to matter for selectin binding)
# T1 construct: mature; also called E-selL CD34
# T1 sequence (looked up): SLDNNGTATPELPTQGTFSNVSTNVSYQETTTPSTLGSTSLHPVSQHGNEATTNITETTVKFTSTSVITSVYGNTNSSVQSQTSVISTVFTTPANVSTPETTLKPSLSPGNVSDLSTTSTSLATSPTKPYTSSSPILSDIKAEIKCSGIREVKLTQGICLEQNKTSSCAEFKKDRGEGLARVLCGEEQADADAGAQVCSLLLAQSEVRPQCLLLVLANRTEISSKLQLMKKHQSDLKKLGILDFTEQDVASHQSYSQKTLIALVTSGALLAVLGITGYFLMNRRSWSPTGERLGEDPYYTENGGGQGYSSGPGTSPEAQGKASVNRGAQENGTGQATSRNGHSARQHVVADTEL
# T2: PSGL-1, native glycoprotein from human HSPCs (KG1a, CD34^pos-BM) (human, UniProt Q14242 42-412, native glycosylation and tyrosine sulfation)
# T2 construct: mature; also called P-selectin glycoprotein ligand-1
# T2 sequence (looked up): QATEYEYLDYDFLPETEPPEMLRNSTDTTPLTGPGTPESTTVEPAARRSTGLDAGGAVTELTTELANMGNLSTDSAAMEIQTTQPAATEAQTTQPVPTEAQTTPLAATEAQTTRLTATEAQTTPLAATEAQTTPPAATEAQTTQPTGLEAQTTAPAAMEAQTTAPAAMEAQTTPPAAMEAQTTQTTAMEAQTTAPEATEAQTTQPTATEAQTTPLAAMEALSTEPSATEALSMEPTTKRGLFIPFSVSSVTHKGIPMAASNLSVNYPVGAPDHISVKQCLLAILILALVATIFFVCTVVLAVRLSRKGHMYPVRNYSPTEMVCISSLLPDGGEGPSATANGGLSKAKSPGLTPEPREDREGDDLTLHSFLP
# T3: CD43, native glycoprotein from KG1a cells (human, UniProt P16150 20-400, native glycosylation)
# T3 construct: mature
# T3 sequence (looked up): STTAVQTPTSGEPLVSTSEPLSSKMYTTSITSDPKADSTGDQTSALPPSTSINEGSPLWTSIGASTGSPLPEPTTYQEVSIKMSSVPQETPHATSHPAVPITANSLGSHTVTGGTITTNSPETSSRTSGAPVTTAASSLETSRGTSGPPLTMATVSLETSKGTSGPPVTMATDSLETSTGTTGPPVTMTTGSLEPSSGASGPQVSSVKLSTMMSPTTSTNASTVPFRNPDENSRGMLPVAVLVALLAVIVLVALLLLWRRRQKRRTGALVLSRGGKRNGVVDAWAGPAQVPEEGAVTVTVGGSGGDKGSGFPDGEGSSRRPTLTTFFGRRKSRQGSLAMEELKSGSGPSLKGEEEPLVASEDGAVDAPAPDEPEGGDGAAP
# B1: recombinant E-selectin human immunoglobulin chimeric protein (Fc fusion)
# chain: WSYNTSTEAMTYDEASAYCQQRYTHLVAIQNKEEIEYLNSILSYSPSYYWIGIRKVNNVWVWVGTQKPLTEEAKNWAPGEPNNRQKDEDCVEIYIKREKDVGMWNDERCSKKKLALCYTAACTNTSCSGHGECVETINNYTCKCDPGFSGLKCEQIVNCTALESPEHGSLVCSHPLGNFSYNSSCSISCDRGYLPSSMETMQCMSSGEWSAPIPACNVVECDAVTNPANGFVECFQNPGSFPWNTTCTFDCEEGFELMGAQSLQCTSSGNWDNEKPTCKAVTCRAVRQPQNGSVRCSHSPAGEFTFKSSCNFTCEEGFMLQGPAQVECTTQGQWTQQIPVCEAFQCTALSNPERGYMNCLPSASGSFRYGSSCEFSCEQGFVLKGSKRLQCGPTGEWDNEKPTCEAVRCDAVHQPPKGLVRCAHSPIGEFTYKSSCAFSCEEGFELHGSTQLECTSQGQWTEEVPSCQVVKCSSLAVPGKINMSCSGEPVFGTVCKFACPEGWTLNGSAARTCGATGHWSGLLPTCEAPTESNIP
# Experiments:
# [1] = biological target: T1, CD34, native glycoprotein from human …; assay: SPR; CD34 captured from KG1a lysate on 563-mAb, E-Ig injected, 150 mM NaCl; apparent rate constant; 1st experiment
# [2] = biological target: CD44 (HCELL), native glycoprotein from human HSPCs (KG1a, CD34^pos fraction) (human) (UniProt P16070); assay: SPR; CD44 captured from KG1a lysate on Hermes-3-mAb, E-Ig injected, 150 mM NaCl; apparent rate constant; mean ± SEM
# [3] = biological target: T1, CD34, native glycoprotein from human …; assay: SPR; CD34 captured from KG1a lysate on 563-mAb, E-Ig injected (3.9-2000 nM), 150 mM NaCl; steady-state model; 2nd experiment
# [4] = biological target: T2, PSGL-1, native glycoprotein from human …; assay: SPR; PSGL-1 captured from KG1a lysate on KPL-1-mAb, E-Ig injected (3.9-2000 nM), 150 mM NaCl; steady-state model; 3rd experiment
# [5] = biological target: T1, CD34, native glycoprotein from human …; assay: SPR; CD34 captured from KG1a lysate on 563-mAb, E-Ig injected, 150 mM NaCl; apparent rate constant; mean ± SEM
# [6] = biological target: CD44 (HCELL), native glycoprotein from human HSPCs (KG1a, CD34^pos fraction) (human) (UniProt P16070); assay: SPR; CD44 captured from KG1a lysate on Hermes-3-mAb, E-Ig injected (3.9-2000 nM), 150 mM NaCl; steady-state model; 1st experiment
# [7] = biological target: T3, CD43, native glycoprotein from KG1a …; assay: SPR; CD43 captured from KG1a lysate on polyclonal CD43 Ab, E-Ig injected (3.9-2000 nM), 150 mM NaCl; steady-state model; 1st experiment
# [8] = biological target: CD44 (HCELL), native glycoprotein from human HSPCs (KG1a, CD34^pos fraction) (human) (UniProt P16070); assay: SPR; CD44 captured from KG1a lysate on Hermes-3-mAb, E-Ig injected (3.9-2000 nM), 150 mM NaCl; steady-state model; 3rd experiment
# [9] = biological target: CD44 (HCELL), native glycoprotein from human HSPCs (KG1a, CD34^pos fraction) (human) (UniProt P16070); assay: SPR, decay after injection of E-Ig (177 nM, 1 mM CaCl2) over CD44 captured on Hermes-3; apparent constant that includes loss of CD44 from the mAb, s^-1 as in paragraph 58
# [10] = biological target: T1, CD34, native glycoprotein from human …; assay: SPR; CD34 captured from KG1a lysate on 563-mAb, E-Ig injected (3.9-2000 nM), 150 mM NaCl; steady-state model; 3rd experiment
# CD44 (HCELL), native glycoprotein from human HSPCs (KG1a, CD34^pos fraction) (human), sequence (P16070 21-742): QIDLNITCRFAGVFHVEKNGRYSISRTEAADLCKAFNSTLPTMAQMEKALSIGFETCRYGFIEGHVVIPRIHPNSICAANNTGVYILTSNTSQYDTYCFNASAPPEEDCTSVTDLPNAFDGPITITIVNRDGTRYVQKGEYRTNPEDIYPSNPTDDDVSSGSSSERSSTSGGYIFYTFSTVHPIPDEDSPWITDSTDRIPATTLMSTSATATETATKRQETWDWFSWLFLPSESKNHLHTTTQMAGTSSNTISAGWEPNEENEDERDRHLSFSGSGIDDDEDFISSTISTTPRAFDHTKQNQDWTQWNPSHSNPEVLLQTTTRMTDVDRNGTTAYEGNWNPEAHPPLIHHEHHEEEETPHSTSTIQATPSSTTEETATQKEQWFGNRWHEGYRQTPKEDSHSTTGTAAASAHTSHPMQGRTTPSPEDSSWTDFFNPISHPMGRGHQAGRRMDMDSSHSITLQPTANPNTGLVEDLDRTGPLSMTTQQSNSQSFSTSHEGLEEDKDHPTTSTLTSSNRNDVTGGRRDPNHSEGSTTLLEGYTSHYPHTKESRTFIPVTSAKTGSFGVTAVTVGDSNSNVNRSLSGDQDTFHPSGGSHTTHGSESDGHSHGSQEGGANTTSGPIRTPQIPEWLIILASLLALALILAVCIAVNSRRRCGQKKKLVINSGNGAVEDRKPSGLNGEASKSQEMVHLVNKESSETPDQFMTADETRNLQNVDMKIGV
binder,measurement,setting,value
B1,koff,[1],0.00029 s⁻¹
same,kon,[1],2030 M⁻¹ s⁻¹
same,koff,[2],0.00019 s⁻¹
same,kon,[2],903 M⁻¹ s⁻¹
same,Kd,[3],268 nM
same,Kd,[4],229 nM
same,koff,[5],0.00026 s⁻¹
same,kon,[5],1230 M⁻¹ s⁻¹
same,Kd,[6],234 nM
same,Kd,[7],509 nM
same,Kd,[8],214 nM
same,koff-apparent,[9],0.00019 s⁻¹
same,Kd,[10],297 nM
